Reference: US20210340207A1 (Merck Sharp & Dohme, published 2021)
*1 amine or outer side, *2 acyl side, *3 side chain or, on linkers, in order; H or OH if unused. Side-chain parts run from the residue outwards. [ ]: non-standard residue; d: D form. pAMF = para-azidomethylphenylalanine, [N-]=[N+]=NCc1ccc(C[C@H](N[*:1])C(=O)[*:2])cc1

Legend:
Assay in all cases: cell-based or functional assay
[1] = target: T1, human IL-2Rαβγc (on Kit225-STAT5 reporter cells, NK-92 cells, primary Treg cells) (human, UniProt P01589 22-272; P14784 27-551; P31785 23-369)
T1 sequence (looked up) 1: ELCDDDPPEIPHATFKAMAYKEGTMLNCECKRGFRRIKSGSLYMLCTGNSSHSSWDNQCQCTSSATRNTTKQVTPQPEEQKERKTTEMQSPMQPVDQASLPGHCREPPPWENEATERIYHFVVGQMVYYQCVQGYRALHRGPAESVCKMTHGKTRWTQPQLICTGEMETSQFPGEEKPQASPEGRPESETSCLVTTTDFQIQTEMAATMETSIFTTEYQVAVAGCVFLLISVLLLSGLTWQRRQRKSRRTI
T1 sequence (looked up) 2: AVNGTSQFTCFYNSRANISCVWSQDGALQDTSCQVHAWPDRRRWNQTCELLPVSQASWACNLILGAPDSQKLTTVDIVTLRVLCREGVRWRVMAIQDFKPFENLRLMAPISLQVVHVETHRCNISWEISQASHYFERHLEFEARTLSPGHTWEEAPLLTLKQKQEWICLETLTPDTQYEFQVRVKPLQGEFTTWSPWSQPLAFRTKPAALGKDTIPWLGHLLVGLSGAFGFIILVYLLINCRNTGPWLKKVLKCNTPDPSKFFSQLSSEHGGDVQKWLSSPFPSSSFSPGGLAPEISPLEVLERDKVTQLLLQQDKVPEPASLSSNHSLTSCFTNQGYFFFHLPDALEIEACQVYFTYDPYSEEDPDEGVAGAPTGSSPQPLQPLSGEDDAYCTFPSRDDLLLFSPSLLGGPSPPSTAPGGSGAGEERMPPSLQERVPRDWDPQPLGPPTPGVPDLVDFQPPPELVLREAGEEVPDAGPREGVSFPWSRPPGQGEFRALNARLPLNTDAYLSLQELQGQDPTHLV
T1 sequence (looked up) 3: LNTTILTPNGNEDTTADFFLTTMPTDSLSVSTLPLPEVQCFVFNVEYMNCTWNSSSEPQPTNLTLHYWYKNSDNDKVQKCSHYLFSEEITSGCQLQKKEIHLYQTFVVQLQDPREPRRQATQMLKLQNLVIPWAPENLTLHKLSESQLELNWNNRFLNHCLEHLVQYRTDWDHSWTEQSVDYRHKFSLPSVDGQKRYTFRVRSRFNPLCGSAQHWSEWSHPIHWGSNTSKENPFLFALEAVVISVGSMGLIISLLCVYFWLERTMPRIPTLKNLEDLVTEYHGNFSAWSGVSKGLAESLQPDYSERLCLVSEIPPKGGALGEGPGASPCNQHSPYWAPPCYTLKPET

[2] = target: T2, human IL-2Rβγc (on DERL-7 cells, U2OS IL2RB/IL2RG cells, CD25 knockout Kit225-STAT5 cells, primary CD8+ CTLs) (human, UniProt P14784 27-551; P31785 23-369)
T2 sequence (looked up) 1: T1 sequence (looked up) 2
T2 sequence (looked up) 2: T1 sequence (looked up) 3

[3] = target: T3, mouse IL-2Rαβγc (on CTLL2-STAT5 reporter cells) (mouse, UniProt P01590 22-268; P16297 27-539; P34902 23-369)
T3 sequence (looked up) 1: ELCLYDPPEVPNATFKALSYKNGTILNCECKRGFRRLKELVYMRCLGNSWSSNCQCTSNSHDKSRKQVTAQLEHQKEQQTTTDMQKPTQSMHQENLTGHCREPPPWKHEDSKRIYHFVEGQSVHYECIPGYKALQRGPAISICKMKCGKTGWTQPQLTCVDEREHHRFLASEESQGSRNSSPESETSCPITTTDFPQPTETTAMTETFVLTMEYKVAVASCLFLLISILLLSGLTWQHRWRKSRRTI
T3 sequence (looked up) 2: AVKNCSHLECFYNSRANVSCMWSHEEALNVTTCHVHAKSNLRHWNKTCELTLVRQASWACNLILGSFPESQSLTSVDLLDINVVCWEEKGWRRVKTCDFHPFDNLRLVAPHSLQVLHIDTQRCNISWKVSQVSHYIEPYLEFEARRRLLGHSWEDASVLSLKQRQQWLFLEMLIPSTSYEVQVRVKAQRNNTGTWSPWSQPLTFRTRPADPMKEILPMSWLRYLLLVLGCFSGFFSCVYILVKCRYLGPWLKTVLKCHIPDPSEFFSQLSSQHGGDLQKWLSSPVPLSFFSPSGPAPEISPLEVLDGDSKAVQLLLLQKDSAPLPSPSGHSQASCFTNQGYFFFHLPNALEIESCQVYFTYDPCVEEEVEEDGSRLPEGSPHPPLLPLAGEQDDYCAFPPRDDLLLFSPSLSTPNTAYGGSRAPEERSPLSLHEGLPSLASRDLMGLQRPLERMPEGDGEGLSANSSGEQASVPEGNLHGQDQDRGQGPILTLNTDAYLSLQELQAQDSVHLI
T3 sequence (looked up) 3: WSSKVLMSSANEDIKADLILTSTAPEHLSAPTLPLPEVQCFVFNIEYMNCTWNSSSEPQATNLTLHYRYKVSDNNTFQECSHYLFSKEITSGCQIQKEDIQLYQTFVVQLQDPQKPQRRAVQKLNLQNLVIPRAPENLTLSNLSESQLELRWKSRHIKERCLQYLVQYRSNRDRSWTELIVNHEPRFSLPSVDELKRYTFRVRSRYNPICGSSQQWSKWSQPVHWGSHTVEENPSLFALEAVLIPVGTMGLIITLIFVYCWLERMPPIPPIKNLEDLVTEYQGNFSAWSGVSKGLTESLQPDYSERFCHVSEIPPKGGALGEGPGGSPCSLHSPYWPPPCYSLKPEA

[4] = target: T2, human IL-2Rβγc (on DERL-7 cells, U2OS …); remark: listed apart in the source

Kit225-STAT5 reporter, fold lower activity than aldesleukin [1]: 5110 fold
CD25 knockout Kit225-STAT5 reporter, fold lower activity than aldesleukin [2]: 24 fold
STAT5-CTLL2 EC50 [3]: 57.4 nM
STAT5-CTLL2 EC50 Fold-change [3]: 5300 fold
DERL-7 EC50 Fold-change [4]: 17 fold
DERL-7 proliferation EC50 [4]: 0.73 nM
B1: Ald_S4pAMF(PEG1)/R37A/F41K (CON1) (ligand)
chain: PTS[pAMF]([DBCO‑triazole-mPEG 30 kDa])STKKTQLQLEHLLLDLQMILNGINNYKNPKLTAMLTKKFYMPKKATELKHLQCLEEELKPLEEVLNLAQSKNFHLRPRDLISNINVIVLELKGSETTFMCEYADETATIVEFLNRWITFSQSIISTLT
modifications: not fully specified (bridges)
notes: also called Des-A1_IL-2_S4pAMF(PEG1)/R37A/F41K/C124S
